Values joined by “and” are separate entries in the source; they are usually repeats but may differ in a detail not shown here. Identical values can stand only once.
B1: Δ29_CaNce103p, CaNce103p lacking the first 29 amino acids (domain or fragment)
chain: DNNNNLNGMNNTIKTHPVRVSSGNHNNFPFTLSSESTLQDFLNNNKFFVDSIKHNHGNQIFDLNGQGQSPHTLWIGCSDSRAGDQCLATLPGEIFVHRNIANIVNANDISSQGVIQFAIDVLKVKKIIVCGHTDCGGIWASLSKKKIGGVLDLWLNPVRHIRAANLKLLEEYNQDPKLKAKKLAELNVISSVTALKRHPSASVALKKNEIEVWGMLYDVATGYLSQVEIPQDEFEDLFHVHDEHDEEEYNPH
notes: Carbonic anhydrase Nce103p of Candida albicans (strain HE109) lacking the first 29 amino acids; C-terminus at residue 281; no tag (stop codon kept); source: E. coli BL23(DE3), purified (HiTrap Ni column, MonoQ)
B2: CaNce103p, carbonic anhydrase from Candida albicans, wild-type full length (enzyme)
chain: MGRENILKYQLEHDHESDLVTEKDQSLLLDNNNNLNGMNNTIKTHPVRVSSGNHNNFPFTLSSESTLQDFLNNNKFFVDSIKHNHGNQIFDLNGQGQSPHTLWIGCSDSRAGDQCLATLPGEIFVHRNIANIVNANDISSQGVIQFAIDVLKVKKIIVCGHTDCGGIWASLSKKKIGGVLDLWLNPVRHIRAANLKLLEEYNQDPKLKAKKLAELNVISSVTALKRHPSASVALKKNEIEVWGMLYDVATGYLSQVEIPQDEFEDLFHVHDEHDEEEYNPH
notes: Carbonic anhydrase Nce103p of Candida albicans, full length (C-terminus at residue 281); gene amplified from genomic DNA of strain HE109; stop codon kept so that no His-tag is attached; purified on Ni through four natural C-terminal histidines; also called wt; source: E. coli BL23(DE3), purified (HiTrap Ni column, MonoQ)

Molecular target: the molecule itself
Test: SEC; HR200 Increase (Superdex 200 Increase 10/300 GL) column in 10 mM Tris-Cl, pH 8, 20 mM β-mercaptoethanol, 0.5 ml/min, calibrated with molecular weight markers; for Δ29 100 μl of 1.0 mg/ml injected; self-association

| Protein | stoichiometry N |
| --- | --- |
| B1 | 4 and 2 |
| B2 | 2 and 4 |
